Reference: patent publication US20240382633A1, “RADIOPHARMACEUTICALS, METHODS FOR THE PRODUCTION THEREOF, AND USES IN TREATMENT, DIAGNOSIS AND IMAGING DISEASES” (priority 2021, published 2024)

How the values were obtained:
in vivo = assay: in vivo; parameters: species or system Balb/c nude mice; details: male, Balb/c nude, mouse, iv, total radioactivity, Percentage of injected dose
Excerpt: (§1) Healthy male Balb/c nude mice (˜18 g) from 8 weeks old were obtained from the ARC and used for this study. Mice were imported into the CAI animal holding facility and monitored for 1 week prior to the study in order to acclimatize to the environment prior to injection of cells. All animals were provided with free access to food and water before and during the imaging experiments which were approved by the University of Queensland Animal Ethics Committee (Approval #AIBN/CAI/105/19/ARC/NHMRC).
(§2) 8-week-old male Balb/c nude mice were injected (27G needle) subcutaneously with PC3 ([…]) cells in 50 μL of 50:50 matrigel and cells in phosphate buffered saline into the right flank of each mouse. There was no evidence of ulceration at the time of dosing; the animals were closely monitored and remained in good condition apart from the growth of tumours. […] Labelled peptides were injected via the tail vein (29G needle; ˜2-3 MBq) and then mice were imaged using the Siemens Inveon PET-CT instrument at the various time points.
(§3) Organs were excised at 24 hours, with the percentage of injected dose of the administered compound determined by ex vivo gamma counting (Table 1, FIG. 5). Values are averages across 4 mice.

PC3 tumours = assay: in vivo; parameters: species or system Balb/c nude mice; details: mouse
Excerpt: as §1, §2, §3

[1] = Stability of aqueous formulation (radiochemical purity over time); type: physicochemical; details: up to 48 hours post End of Synthesis, 3 validation batches
Procedure: Product stability was monitored up to 48 hours post End of Synthesis (EOS) for 3 validation batches of [^64Cu]Formula (Ib) in an aqueous formulation prepared as outlined above. Due to time restrictions, identical stability sampling time points were not always achievable. […] This is attributed to radioactive decay reducing the peak area of radiolytic impurities to below detectable limits, rather than a true increase in the radiochemical purity.

SMILES | tissue uptake at 24 h (in vivo; Blood) [%ID/g] | tissue uptake at 24 h (in vivo; GI Tract) [%ID/g] | tissue uptake at 24 h (in vivo; Heart) [%ID/g] | tissue uptake at 24 h (in vivo; Kidneys) [%ID/g] | tissue uptake at 24 h (in vivo; Liver) [%ID/g] | tissue uptake at 24 h (in vivo; Lungs) [%ID/g] | tissue uptake at 24 h (in vivo; Pancreas) [%ID/g] | tissue uptake at 24 h (in vivo; Spleen) [%ID/g] | tissue uptake at 24 h (in vivo; Tumour) [%ID/g] | Percentage of injected dose, Tail (PC3 tumours) | tissue uptake at 24 h (in vivo; Tail) [%ID/g] | radiochemical purity (stability) [1] [%]
CC(C)C[C@H](NC(=O)C[C@H](O)[C@H](CC(C)C)NC(=O)[C@H](Cc1c[nH]cn1)NC(=O)CNC(=O)[C@@H](NC(=O)[C@H](C)NC(=O)[C@H](Cc1c[nH]c2ccccc12)NC(=O)[C@H](CCC(N)=O)NC(=O)[C@@H](Cc1ccccc1)NC(=O)CCOCCOCCOCCOCCNC(=O)CCCC(=O)NC12CNCCNCC(NC(=O)CCCC(=O)NCCOCCOCCOCCOCCC(=O)N[C@H](Cc3ccccc3)C(=O)N[C@@H](CCC(N)=O)C(=O)N[C@@H](Cc3c[nH]c4ccccc34)C(=O)N[C@@H](C)C(=O)N[C@H](C(=O)NCC(=O)N[C@@H](Cc3c[nH]cn3)C(=O)N[C@@H](CC(C)C)[C@@H](O)CC(=O)N[C@@H](CC(C)C)C(N)=O)C(C)C)(CNCCNC1)CNCCNC2)C(C)C)C(N)=O [[^64Cu]Formula (Ia), metal not drawn] | 0.1 ± 0.05 | 0.44 ± 0.04 | 0.21 ± 0.03 | 6.81 ± 0.67 | 16.8 ± 1.55 | 0.36 ± 0.12 | 0.84 ± 0.06 | 1.47 ± 0.2 | 2.13 ± 0.86 | 0.28 0.05 % ID/g | – | –
CC(C)C[C@H](NC(=O)C[C@H](O)[C@H](CC(C)C)NC(=O)[C@H](Cc1c[nH]cn1)NC(=O)CNC(=O)[C@@H](NC(=O)[C@H](C)NC(=O)[C@H](Cc1c[nH]c2ccccc12)NC(=O)[C@H](CCC(N)=O)NC(=O)[C@@H](Cc1ccccc1)NC(=O)CCOCCOCCOCCOCCNC(=O)CCCC(=O)NC12CNCCNCC(C)(CNCCNC1)CNCCNC2)C(C)C)C(N)=O [[^64Cu]Formula (Ib), metal not drawn] | 0.13 ± 0.04 | 0.3 ± 0.07 | 0.24 ± 0.02 | 3.55 ± 0.79 | 1.52 ± 0.18 | 0.31 ± 0.08 | 0.23 ± 0.02 | 0.38 ± 0.06 | 4.09 ± 0.52 | – | 0.56 ± 0.87 | ≥ 92.4
